Experimental data as given in US20200325212.

How the values were obtained:
[1] = molecular target: CTLA4-Fc MMP9 (MMP9-cleavable CTLA4-Fc mask; CTLA4-Fc_WT)
[2] = molecular target: CTLA4-Fc Mxx9 (non-cleavable mask), P16410
[3] = molecular target: T1, mLCN2-Fc (bivalent m-Lcn2 fused to human IgG1 Fc)
T1 chain: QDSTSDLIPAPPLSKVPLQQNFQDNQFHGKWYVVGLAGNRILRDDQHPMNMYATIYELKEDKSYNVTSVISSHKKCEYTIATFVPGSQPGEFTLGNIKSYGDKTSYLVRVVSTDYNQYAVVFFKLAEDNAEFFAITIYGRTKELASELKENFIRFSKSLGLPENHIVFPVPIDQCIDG

Sequence of CTLA4-Fc MMP9 (MMP9-cleavable CTLA4-Fc mask; CTLA4-Fc_WT) (chain, as listed by the source): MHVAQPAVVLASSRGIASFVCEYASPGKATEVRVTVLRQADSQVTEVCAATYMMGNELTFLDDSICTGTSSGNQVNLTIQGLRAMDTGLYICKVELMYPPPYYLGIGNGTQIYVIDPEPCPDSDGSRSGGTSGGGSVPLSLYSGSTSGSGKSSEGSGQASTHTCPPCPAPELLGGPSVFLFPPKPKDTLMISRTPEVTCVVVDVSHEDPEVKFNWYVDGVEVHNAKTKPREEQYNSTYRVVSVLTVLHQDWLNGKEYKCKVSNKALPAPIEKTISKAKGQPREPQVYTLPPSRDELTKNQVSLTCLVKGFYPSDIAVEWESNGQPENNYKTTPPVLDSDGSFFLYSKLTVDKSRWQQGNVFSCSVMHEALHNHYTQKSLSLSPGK
Sequence of CTLA4-Fc Mxx9 (non-cleavable mask), P16410 (P16410 whole entry, looked up, the tested form may be a part): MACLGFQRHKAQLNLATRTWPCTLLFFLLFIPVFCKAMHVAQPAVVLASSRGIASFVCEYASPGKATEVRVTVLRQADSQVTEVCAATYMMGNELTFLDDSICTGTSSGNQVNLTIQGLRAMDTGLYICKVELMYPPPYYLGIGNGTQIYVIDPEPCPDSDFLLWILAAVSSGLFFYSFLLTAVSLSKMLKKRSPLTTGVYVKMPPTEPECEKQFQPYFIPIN

B1: recombinant human MMP9 (ProSpecBio) (protein)
chain: APRQRQSTLVLFPGDLRTNLTDRQLAEEYLYRYGYTRVAEMRGESKSLGPALLLLQKQLSLPETGELDSATLKAMRTPRCGVPDLGRFQTFEGDLKWHHHNITYWIQNYSEDLPRAVIDDAFARAFALWSAVTPLTFTRVYSRDADIVIQFGVAEHGDGYPFDGKDGLLAHAFPPGPGIQGDAHFDDDELWSLGKGVVVPTRFGNADGAACHFPFIFEGRSYSACTTDGRSDGLPWCSTTANYDTDDRFGFCPSERLYTQDGNADGKPCQFPFIFQGQSYSACTTDGRSDGYRWCATTANYDRDKLFGFCPTRADSTVMGGNSAGELCVFPFTFLGKEYSTCTSEGRGDGRLWCATTSNFDSDKKWGFCPDQGYSLFLVAAHEFGHALGLDHSSVPEALMYPMYRFTEGPPLHKDDVNGIRHLYGPRPEPEPRPPTTTTPQPTAPPTVCPTGPPTVHPSERPTAGPTGPPSAGPTGPPTAGPSTATTVPLSPVDDACNVNIFDAIAEIGNQLYLFKDGKYWRFSEGRGSRPQGPFLIADKWPALPRKLDSVFEERLSKKLFFFSGRQVWVYTGASVLGPRRLDKLGLGADVAQVTGALRSGRGKMLLFSGRRLWRFDVKAQMVDPRSASEVDRMFPGVPLDTHDVFQYREKAYFCQDRFYWRVSSRSELNQVDQVGYVTYDILQCPED
cleavage, SDS-PAGE [1]: Recombinant MMP9 was demonstrated to effectively cleave the CTLA4-MMP9-Fc mask
intensity of the full-length band, time course of cleavage at 37 °C, SDS-PAGE [1]: At 2 h the intensity of the full-length band was ~50% of the 0 h timepoint
cleavage, SDS-PAGE [2]: Addition of MMP9 had no effect on CTLA4-Fc Mxx9 bands.
cleavage, SDS-PAGE [3]: but not the m-Lcn2-Fc
